According to PMC12561925:

B1: recombinant soluble murine EphB3 Fc fusion protein (Fc fusion)
chain: LEETLMDTKWVTSELAWTSHPESGWEEVSGYDEAMNPIRTYQVCNVRESSQNNWLRTGFIWRREVQRVYVELKFTVRDCNSIPNIPGSCKETFNLFYYEADSDVASASSPFWMENPYVKVDTIAPDESFSRLDAGRVNTKVRSFGPLSKAGFYLAFQDQGACMSLISVRAFYKKCASTTAGFALFPETLTGAEPTSLVIAPGTCIANAVEVSVPLKLYCNGDGEWMVPVGACTCATGHEPAAKESQCRACPPGSYKAKQGEGPCLPCPPNSRTTSPAASICTCHNNFYRADSDSADSACTTVPSPPRGVISNVNETSLILEWSEPRDLGGRDDLLYNVICKKCRGSSGAGGPATCSRCDDNVEFVPRQLGLTERRVHISHLLAHTRYTFEVQAVNGVSGKSPLPPRYAAVNITTNQAAPSEVPTLHLHSSSGSSLTLSWAPPERPNGVILDYEMKYFEKSKGIASTVTSQKNSVQLDGLQPDARYVVQVRARTVAGYGQYSHPAEFETTSERGSGAQQLQEQLPL

Key:
[1] = target: MHV68 gL-gH fusion protein (gL-Linker-gH-Linker-His6) (murine gammaherpesvirus 68 (MHV68))
[2] = target: MHV68 gL-gH fusion protein (gL-Linker-gH-Linker-His6) (murine gammaherpesvirus 68 (MHV68)); assay: ELISA; MHV68 gL-gH fusion protein coated at 2.5 μg/ml in PBS on Maxisorp plates; soluble dimeric Eph-Fc proteins 2 h at room temperature in 1% BSA in PBS; detected with HRP-conjugated ProteinG; OD 450 nm; four-parameter dose-response fit

| Molecule | reduction of MHV68 ORF59-GFP infection of the murine endothelial cell line SVEC4-10 after pre-incubation of the virus with 100 nM homodimerized mEphA4-Fc [1] [%] | EC50 [2] [nM] | inhibition of MHV68 ORF59-GFP infection of human fibroblasts (HFF) and endothelial cells (TIME) after pre-incubation of the virus with 100 nM homodimerized mEphB3-Fc [1] [%] |
| --- | --- | --- | --- |
| recombinant soluble murine EphA4 Fc fusion protein (from UniProt Q03137-1 20-547) | 25 | 3.6 | – |
| B1 | – | 2.3 | 30 |
